Results published in patent US20090156542.

Key:
[1] = molecular target: biotinylated human D-MCP-1 (mirror-image D-protein) (Homo sapiens) (UniProt P13500); test: pulldown
[2] = molecular target: biotinylated murine D-MCP-1 (mirror-image D-protein) (Mus musculus) (UniProt P10148); test: pulldown; details: subnanomolar
[3] = molecular target: human MCP-1 (CCL2, natural L-form) (Homo sapiens) (UniProt P13500); test: SPR; details: L-RNA, 37 C, 1 mM Mg, 1 mM Ca
[4] = direct or competitive pull-down

Chain of biotinylated human D-MCP-1 (mirror-image D-protein) (Homo sapiens) (P13500 24-99): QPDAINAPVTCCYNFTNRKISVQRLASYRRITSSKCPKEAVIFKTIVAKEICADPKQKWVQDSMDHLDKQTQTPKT
Chain of biotinylated murine D-MCP-1 (mirror-image D-protein) (Mus musculus) (P10148 24-99): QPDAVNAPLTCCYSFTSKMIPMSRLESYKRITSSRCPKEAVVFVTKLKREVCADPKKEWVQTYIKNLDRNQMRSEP
Chain of human MCP-1 (CCL2, natural L-form) (Homo sapiens) (P13500 24-99): as the sequence (P13500 24-99) above

Sequence | Kd [1, 4] | Kd ([2]; stated for derivatives) | other results
GUGCUGCGUAGUUAAAAACUACCAGCGACUGGCUAGAGCCGGCAGCAC [D-178-D5] | 0.5 nM | – | –
CUGGUUACCGAGGGGGCGUCGUUGGAGUUUGGUUGGUUGUCACCAG [D-189-G7-002] | – | < 1 nM | –
GCCGGUUACCGAGGGGGCGUCGUUGGAGUUUGGUUGGUUGUCACCGGC [D-189-G7-007] | – | < 1 nM | –
GGCGACAUUGGUUGGGCAUGAGGCGAGGCCCUUUGAUGAAUCCGCGGCCAUU [D-188-A3-006] | – | < 1 nM | –
AGCGUGCCAGUGUGAUGGGGGGGCGCGACCCAUUUUACACGCU [D-176-C9trc] | – | – | Kd ([1]; Type 1B): 5 nM
ACGCACGUCCCUCACCGGUGCAAGUGAAGCCGUGGCUCUGCGU [D-180-D1-002] | < 1 nM | – | –
GCACGUCCCUCACCGGUGCAAGUGAAGCCGUGGCUCUGCGU [D-180-D1-011] | < 1 nM | – | –
ACGCACGUCCCUCACCGGUGCAAGUGAAGCCGUGGCUCUGC [D-180-D1-012] | < 1 nM | – | –
GUGCUGCGUAGUGAGAAACUACCAACGACUGGCUAGAGCCGGCAGCAC [D-181-A2] | 0.1 nM | – | –
GCUGGUUACCGAGGGGGCGUCGUUGGAGUUUGGUUGGUUGUCACCAGC [D-189-G7-001] | – | – | Kd [2]: < 1 nM
GGCGACAUUGGUUGGGCAUGAGGCGAGGCCCUUUGAUGAAUCCGCGGCCAUUC [D-188-A3-005] | – | < 1 nM | –
GAGAUGGCGACAUUGGUUGGGCAUGAGGCGAGGCCCUUUGAUGAAUCCGCGGCCAUUC [D-188-A3-001] | – | – | Kd [2]: < 1 nM
GGGCCUACCGAGGGGGCGUCGUUGGAGUUUGGUUGGUUGUCGGCCC [D-189-G7-012] | – | < 1 nM | –
CGCACGUCCCUCACCGGUGCAAGUGAAGCCGUGGCUCUGCG [D-180-D1-035] | < 1 nM | – | –
UGGUUACCGAGGGGGCGUCGUUGGAGUUUGGUUGGUUGUCACCA [D-189-G7-003] | – | < 1 nM | –
GCACGUCCCUCACCGGUGCAAGUGAAGCCGUGGCUCUGCG [NOX-E36 (180-D1-036)] | – | – | Kd ([3]; PioneerF1 chip): 0.89 nM
GAUGGCGACAUUGGUUGGGCAUGAGGCGAGGCCCUUUGAUGAAUCCGCGGCCAUUC [D-188-A3-004] | – | < 1 nM | –
GCACGUCCCUCACCGGUGCAAGUGAAGCCGUGGCUCUGCG [D-NOX-E36 (D-180-D1-036)] | – | – | Kd ([1]; 37 C, selection buffer 1 mM Mg, 1 mM Ca): 0.146 nM; Kd ([1]; room temperature, selection buffer 1 mM Mg, 1 mM Ca): 0.89 nM
AGCGUGCCCGGUGUGGUAGGGGGGCGCGACCUACAUUUGCACGCU [D-176-E10trc] | – | – | Kd ([1]; Type 1A): 5 nM
GCGCGUACCGAGGGGGCGUCGUUGGAGUUUGGUUGGUUGUCCGCGC [D-189-G7-010] | – | < 1 nM | –
GCCGGCUACCGAGGGGGCGUCGUUGGAGUUUGGUUGGUUGUCGCCGGC [D-189-G7-008] | – | < 1 nM | –
GGGCGUAGUGAGAAACUACCAACGACUGGCUAGAGCCGGCCC [181-A2-018] | – | – | Kd ([3]; CM4 chip): 0.37 nM
GUGCGCGUAGUUAAAAACUACCAGCGACUGGCUAGAGCCGGCGCAC [D-178-D5-030] | 0.5 nM | – | –
